Columns and labels:
[1] = target: rIGFBP-5 (gift of D. Andress), P24593
[2] = target: rIGFBP-3 (gift of D. Powell), P17936
[3] = target: C-terminally c-myc tagged rIGFBP-5 (human IGFBP-5 with myc epitope and His6, expressed in mammalian cells), P24593
Chain of C-terminally c-myc tagged rIGFBP-5 (human IGFBP-5 with myc epitope and His6, expressed in mammalian cells), P24593 (P24593 other isoform, or with tags, fused parts or gaps): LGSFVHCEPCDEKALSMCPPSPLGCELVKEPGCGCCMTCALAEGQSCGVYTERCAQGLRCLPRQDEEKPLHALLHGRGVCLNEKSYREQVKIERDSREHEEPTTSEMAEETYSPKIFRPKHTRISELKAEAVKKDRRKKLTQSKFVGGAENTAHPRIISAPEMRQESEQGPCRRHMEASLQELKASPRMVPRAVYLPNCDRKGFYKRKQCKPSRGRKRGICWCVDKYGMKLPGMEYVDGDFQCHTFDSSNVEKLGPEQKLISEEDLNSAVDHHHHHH

Chain of rIGFBP-5 (gift of D. Andress), P24593 (P24593 21-272): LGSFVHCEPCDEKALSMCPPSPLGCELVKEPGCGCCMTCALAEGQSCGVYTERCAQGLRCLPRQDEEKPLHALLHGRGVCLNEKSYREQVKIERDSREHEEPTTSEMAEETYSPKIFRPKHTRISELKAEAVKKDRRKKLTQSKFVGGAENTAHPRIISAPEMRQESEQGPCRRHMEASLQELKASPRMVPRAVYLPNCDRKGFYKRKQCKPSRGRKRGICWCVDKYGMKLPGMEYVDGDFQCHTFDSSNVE
Chain of rIGFBP-3 (gift of D. Powell), P17936 (P17936 28-291): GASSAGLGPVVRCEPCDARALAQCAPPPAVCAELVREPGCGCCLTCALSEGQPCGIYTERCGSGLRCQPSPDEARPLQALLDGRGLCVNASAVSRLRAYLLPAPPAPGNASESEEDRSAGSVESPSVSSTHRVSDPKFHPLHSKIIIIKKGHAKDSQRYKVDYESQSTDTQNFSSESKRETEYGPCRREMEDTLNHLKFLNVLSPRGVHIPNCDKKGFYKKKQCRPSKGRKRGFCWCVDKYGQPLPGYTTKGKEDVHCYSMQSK

B1: PAPP-A2 (recombinant, in medium from 293T cells transfected with cDNA encoding PAPP-A2, pPA2; also purified PAPP-A2) (protein)
chain: SPPEESNQNGGEGSYREAETFNSQVGLPILYFSGRRERLLLRPEVLAEIPREAFTVEAWVKPEGGQNNPAIIAGVFDNCSHTVSDKGWALGIRSGKDKGKRDARFFFSLCTDRVKKATILISHSRYQPGTWTHVAATYDGRHMALYVDGTQVASSLDQSGPLNSPFMASCRSLLLGGDSSEDGHYFRGHLGTLVFWSTALPQSHFQHSSQHSSGEEEATDLVLTASFEPVNTEWVPFRDEKYPRLEVLQGFEPEPEILSPLQPPLCGQTVCDNVELISQYNGYWPLRGEKVIRYQVVNICDDEGLNPIVSEEQIRLQHEALNEAFSRYNISWQLSVHQVHNSTLRHRVVLVNCEPSKIGNDHCDPECEHPLTGYDGGDCRLQGRCYSWNRRDGLCHVECNNMLNDFDDGDCCDPQVADVRKTCFDPDSPKRAYMSVKELKEALQLNSTHFLNIYFASSVREDLAGAATWPWDKDAVTHLGGIVLSPAYYGMPGHTDTMIHEVGHVLGLYHVFKGVSERESCNDPCKETVPSMETGDLCADTAPTPKSELCREPEPTSDTCGFTRFPGAPFTNYMSYTDDNCTDNFTPNQVARMHCYLDLVYQQWTESRKPTPIPIPPMVIGQTNKSLTIHWLPPISGVVYDRASGSLCGACTEDGTFRQYVHTASSRRVCDSSGYWTPEEAVGPPDVDQPCEPSLQAWSPEVHLYHMNMTVPCPTEGCSLELLFQHPVQADTLTLWVTSFFMESSQVLFDTEILLENKESVHLGPLDTFCDIPLTIKLHVDGKVSGVKVYTFDERIEIDAALLTSQPHSPLCSGCRPVRYQVLRDPPFASGLPVVVTHSHRKFTDVEVTPGQMYQYQVLAEAGGELGEASPPLNHIHGAPYCGDGKVSERLGEECDDGDLVSGDGCSKVCELEEGFNCVGEPSLCYMYEGDGICEPFERKTSIVDCGIYTPKGYLDQWATRAYSSHEDKKKCPVSLVTGEPHSLICTSYHPDLPNHRPLTGWFPCVASENETQDDRSEQPEGSLKKEDEVWLKVCFNRPGEARAIFIFLTTDGLVPGEHQQPTVTLYLTDVRGSNHSLGTYGLSCQHNPLIINVTHHQNVLFHHTTSVLLNFSSPRVGISAVALRTSSRIGLSAPSNCISEDEGQNHQGQSCIHRPCGKQDSCPSLLLDHADVVNCTSIGPGLMKCAITCQRGFALQASSGQYIRPMQKEILLTCSSGHWDQNVSCLPVDCGVPDPSLVNYANFSCSEGTKFLKRCSISCVPPAKLQGLSPWLTCLEDGLWSLPEVYCKLECDAPPIILNANLLLPHCLQDNHDVGTICKYECKPGYYVAESAEGKVRNKLLKIQCLEGGIWEQGSCIPVVCEPPPPVFEGMYECTNGFSLDSQCVLNCNQEREKLPILCTKEGLWTQEFKLCENLQGECPPPPSELNSVEYKCEQGYGIGAVCSPLCVIPPSDPVMLPENITADTLEHWMEPVKVQSIVCTGRRQWHPDPVLVHCIQSCEPFQADGWCDTINNRAYCHYDGGDCCSSTLSSKKVIPFAADCDLDECTCRDPKAEENQ
[1]
  activity assessed by ligand blotting using radiolabeled IGF-II: IGFBP-5 showed complete cleavage
[2]
  activity assessed by ligand blotting using radiolabeled IGF-II: IGFBP-3 was partially degraded
[3]
  Proteolytic activity was assessed by Western blotting using anti-c-myc: In the absence of inhibitors, wild-type PAPP-A2 degraded all rIGFBP-5 (lane 3)

From patent US20140141456
